Experiment: label from the status in PepcDB records

| Sequence | protein production |
| --- | --- |
| MDPLKRVENELKKCVKCGACRAHCPAFATFGKEPAVARGKVALAQHLLKGDIELDDATYAAMSKCLLCGSCVEKCPNDVPTDEIVVVAREALSGQRGLTTFHAAVGRVIRNRSLMKFGAAAARILGPLFFRKVPETSGLRLRFPLPFLGGKRHIPSIAKKPFLDRHPEVIPGEPGKPRIVYFVGCMTNFCYPQVGEAALALFRHLGCTVIIPKNQQCCGLPGMSGGDLDTVRGLAEKNLAELERYEADYIMTACATCGGALHKFYPNLVGKRHPELAARLKAIAEKTVDAAQLLQKLGLNPEETGAGSDIRVTYHDPCHLRTRAITRQPRELLQGTPGVELAEMEGADKCCGLGGTFNVYHYESSLAINKMKSAAIINTGADAVVTGCPGCMMQLSDGLKQQRNRTRVLHTLEILARSIRP | failed |
| MDPNQPVKFTEFMPDSGGIRTKFIVKGSNFGEDKSQVKVYFKDEVGNEREALVLGVKPDVIYAQVPKQAGGESHVRVEIAGKEAELSNAEKTFKYIVTSSVSTVVGKAKEGGNKDGTLGETTFNTPRYVAVDNDDNVFIFDSDGRTRLSSIEQNKTITLLDGMVIDQPLFIDKEKKQLFGPCDNANFGCFLFDANVSWVADKMGQLLANGGWMHSVVLDPVDSTFVIYRQNTGQLWTQPFDKNRRTLNPNKAKRIGTLYNTGSNGLCAYNPVDKYVYCVLHSKSAVYRFKLTRDADGWPALDGDIDEYIPGAGAGFRDGDVQEAQFKEPRGIAIDKEGNLYIADVGNNRIRKVDTKLNVVTTIAGSGAAGYKDGDPLEAQFNQPWGVYLDKNEFLYIADQNNHCIRKLAIELEHHHHHH | failed |
| MDPNVITVTSYANIAIIKYWGKENQAKMIPSTSSISLTLENMFTTTSVSFLPDTATSDQFYINGILQNDEEHTKISAIIDQFRQPGQAFVKMETQNNMPTAAGLSSSSSGLSALVKACDQLFDTQLDQKALAQKAKFASGSSSRSFFGPVAAWDKDSGAIYKVETDLKMAMIMLVLNAAKKPISSREGMKLCRDTSTTFDQWVEQSAIDYQHMLTYLKTNNFEKVGQLTEANALAMHATTKTANPPFSYLTKESYQAMEAVKELRQEGFACYFTMDAGPNVKVLCLEKDLAQLAERLGKNYRIIVSKTKDLPDV | not failed |
| MDPRQFEHTVVADNDIHSIVMSYLLHNCFNETADSLASSTGVKQPAIDRDNMERRKQIIHFILERKALKAFELTEQLAQDLLEKNKDLQFDLLCLHFVELICAGNCTEALKFGKTRLAPFGKVKKYVEKLEDVMALLAYEDPEKSPMFHLLSSEYRQQVADNLNRTILEHTNHPSYTPMERIIQQVTVVRQYLTEENGKDAFPPFSLKDSLKG | failed |
| MDPSRLLRTERERKAVMPPFSPGPLPIDPVLPALLEALASHGRAVLIAPPGAGKTTRVPPALLGALWLGGQKVVMLEPRRLATRAAARRMAFEAGEAVGQRFGFRVRGESRSGPLTRVEVMTEGILTRRIQDDPELAGVGCVILDEFHERGLQGDLAFALLREIQGALRPDLRLLVMSATLDGAAIAALMDDAPVIESHGRAFPVTITHGERPAARDLGPAMARTILRALEDEPGSVLAFLPGEREIAAVAGALARALPADTVLRPLYGALPPAEQDAAISPCPPGQRKVVLATDIAETSLTIEGVRIVVDSGLRRSPRFDPQTGLSRLDTVRISQAGAEQRRGRAGRLEPGVCLRLWPEAEHRALPAQETPEILAADLAPLALELARWGARDAAALCWPTPPPPGPLAQARDLLTSLGALEPAGGLSAHGAAMAALPLHPRLAHMVLAAKADGADDGALACLLAALLAERDILRPGPGAARDRDLTTRLEILIGQGRRAPAGQILRQPTLGAVRDEAARLRQLAGIAASASPEPARCGRVLARAYPDRIAQARPGQPGRFLLSSGRGALIDVGDPLAAAAFLAVAEVDGAGSEARVFLAAPLDRADLEELFDEALRPCETVTWDPRAEAVVARVERRLGALVFESRDLPDRADPARTTPAVCAGIRRLGLGCLPWTRETDRLRARVAFLHRVHSADDWPDLSDDALLASLADWLGPWLDGITRRSAFARIDLMAALKALIGWRRLADLDRLAPAQMDVPSGVKVALDYEVPDGPVLAARVQQLFGLTRTPAVLDGGHPVLVHLLSPAGRPLQVTRDLAGFWKGSYAEVRKDMRGRYPKHPWPEDPTGAEATNRVKPRGQ | failed |
| MDPWDTYNIPLDHQHRLRNRRDHRHPSFSSTLLDQIYRSIDDSSTNSSSMRKTKHQNREDTRVSANRRDDFNRSKNLKTIEPVFFKHSSSSSSDSSGFSSSESDYFYRRSKSSPAISHPKPIRTTVERFERSPQNHRPNSSNKQEHGSFLKTKSKALKIYSDLKKVKQPISPGGRLATFLNSIFTGAGNTKKLNKINTTVTSTTAAAAAASSTTTCSSASSFSRSCLSKTPSSSEKSKRSVRFCPVNVIFDEDSSKYNNKNNKVYGNNEREYESIRHTLENRVMEENRRVIEAAKELLRSYQKKNKEVIEVSVEDDEEDDDDDALSCTSSDLFELDNLSAIGIDRYREELPVYETTRLNTNRIISR | failed |
| MDQESNATSQDILKQHAAHYESDMGGLPEALVQLAEYAPETFDAYSRMRTTMLKSEADGAKLPLKYKHLILVVLDAIRDEPIGIVNHTRAAMNAGLSVDELIEGILLGIIVYGMPAWGKTGRKAVTFAVEFEKELAGKRT | not failed |
| MDQKELQVRKEIQELSFLIFTEPNNYKHYYERGILYGGEHIKSTECRESDYHGDYSQAIEDFDKVIELQPNFANAYYHKACIYFDLGIDDDEAESLLEKALALEPNNSAYTIKYAEVITYHGENGDIAAELLEKVLVQDYSADNCILSAGYLLQYASYDFLIGNDVQALQTYQKAMKRLQHAVEKDHECLEYATNMWSDFAEGCGYDHESIKNGSSLLLPQISVWM | failed |
| MDQKPQPAKTHATEVTVLEGKTMGTFWRASIPGIDAKRSAELKEKIQTQLDADDQLLSTYKKDSALMRFNDSQSLSPWPVSEAMADIVTTSLRIGAKTDGAMDITVGPLVNLWGFGPEQQPVQIPSQEQIDAMKAKTGLQHLTVINQSHQQYLQKDLPDLYVDLSTVGEGYAADHLARLMEQEGISRYLVSVGGALNSRGMNGEGLPWRVAIQKPTDKENAVQAVVDINGHGISTSGSYRNYYELDGKRLSHVIDPQTGRPIEHNLVSVTVIAPTALEADAWDTGLMVLGPEKAKEVVRREGLAVYMITKEGDSFKTWMSPQFKSFLVSEKNLEHHHHHH | not failed |
| MDQMEKITTGVSYTTSAVGTGYWFLQLLDRVSPSQWAAIGVLGSLLFGLLTYLTEVYWQ | failed |
| MDREALDRKRTWVTQGPIVKVILALATPIVAARLLAATQESVDAIFLGRVSTEDLAAPAAASPLLWLFAGLGIGINTTLSALVSQAIGARDYASAQRYASKLLGATLMLGAASALAIILTAETVFILQGFQGRSLEVALAYTLVEAVGMPFMLALFYFNAVMAASGDTRTPFKVSALSSILNVILDPILIFGLILLPPLGAVGAAVATVLARAAAVSIAFYLLLRGAPGFRVKPSMPDRQLIGHILRIGGPVSLQRLVVSMGFLVMMGIVARLGAPVVAAYNVSLVIIHIVQSATFGFNIATATVVGQNLGASNISRAVRAAYTGVALVFGLLSIGAVAIVGGRSMLVSLFTSIEEVQFYAERMISIVALGMPFLGAFFTAMGVARGSGRTAFISALGIARLWLLRIPAAYTLVYIYSLGDMGVWLAMTLSNIIAGTLAIAWVAGRTWAKPIVKRVPPEPLGEKPPAIPEPAINR | failed |
| MDRFENMNAFVRVVETGSISAAADRMDIAKSVVSRRLKELEEHLGVELFHRTTRQMNLTDSGRAFYQQSVRILADVLEAEHATSQFHGRLKGHLKVAVPLSFGLMHLGAAISTFLQTHPDIEFDLDFNDRQVDLLAEGFDLAIRIANLPDSSLIARRLAPIQAVMCASPAYLERMGTPQAPEELIRHRCLVYNLVSHSDNWNVYGTTGELIKTRIIPYLKASNGEFLRDAAVDGLGIVLLPTFIVYREIQRGALIPILTGYHYAQLAAYAIYPQTRHLSQRVRAFVDFLSQRFEGMPYWDACLNQ | failed |
| MDRGEQGLLRTDPVPEEGEDVAATISATETLSEEEQEELRRELAKVEEEIQTLSQVLAAKEKHLAEIKRKLGINSLQELKQNIAKGWQDVTATSAYKKTSETLSQAGQKASAAFSSVGSVITKKLEDVKNSPTFKSFEEKVENLKSKVGGTKPAGGDFGEVLNSAANASATTTEPLPEKTQESL | failed |
| MDRIIEKLDHGWWVVSHEQKLWLPKGELPYGERANFDLVGQRALQIGEWQGEPVWLVQQQRRHDMGSVRQVIDLDVGLFQLAGRGVQLAEFYRSHKYCGYCGHEMYPSKTEWAMLCSHCRERYYPQIAPCIIVAIRRDDSILLAQHTRHRNGVHTVLAGFVEVGETLEQAVAREVMEESGIKVKNLRYVTSQPWPFPQSLMTAFMAEYDSGDIVIDPKELLEANWYRYDDLPLLPPPGTVARRLIEDTVAMCRAEYE | not failed |
| MDRIPFGIRQLDSIINGGAPAGSVVLLSGEAGAGSREFMHTSALINGLEQVDTELHDLYYGDRSPDAVAPDEVHYISFTTNESQLVSEMRLAMDDDVVDKGSRAVEFHDLSERYFHISPVPREWYASETASITDLRARHEREDLLGTLGMVLNEVAANNLVVIDSLSDLVSAMGEEIEWSDISSLVQGLQKAAHQWGCLLLLHINPETLSTVRHGQLVDASHGTMEFAWESGGSTRARTLVVQQFRGVLSQIEDEDIVQFETELGDAGFDISDVRKIRLEHHHHHH | failed |
| MDRLSYAIGDKAVLNNIRVQFQPGSVTALLGPNGAGKSTLLKALCQEIPSAQGSIKLGHCQLVDWPRAELAKSLAVLPQHASLTFPFTVDEVVAMGLYPLTLSQKEGQQLVTKWLAEVGVLHLARRSYPTLSGGEKQRVQLARVLTQLSQSPFPPILLLDEPTSALDLAQQHKVLALAKNLAHKHAYTVIVVLHDLNQAARYSDRVIVLKQGEIVSEGTPNDALSIDIIRQVWDYEPEFIPAPQGDYPLIF | failed |
| MDRNEVRHAWDSVSETYAERRDPTGSDAALLEDLLERLPEAPTVLDVGCGDGARTLANLPPRSVGLDFSRAGLDLAAETVPDSRLVQGDMGSLPVTTDSVDAITAYHAVFHVQRDQHPEVYREFARVLRPGGTVLMTLPSGQFETVRRGWMGGSMFFSAPGRRATLDQLADAGFTETETVTATDPLGSDSEFVFATLADALEHHHHHH | not failed |
| MDRNLVQKGDAPPSKRSDPGTEFCVDIVVKGRKTEVPERFRKHVAEKLKLEKIQKLDGKVISLDVEVSKEPNPRQADRCDRVEITLRSRGPVIRAEAAASDPYAALDLAAEKLGARLRKQHDKRFSRRGARRISAAEVADHVPGAATLNGNGDVVPTEKQDGVPTKKIGSLEVQGDGPLVVREKTHVAAPMSLDQALYEMELVGHDFYLFVDSETKEPSVVYRRHAYDYGVIHLTTDTMVTQAHAPDAGDALGGLEHHHHHH | failed |
| MDRPETIAVKCEPMTVDSPSRPLKLVVLADLNFNPPETDDLDSSIPIPTPPPITRLSNEESHQEGGILTCKEVEPGEVEAKKISKVGKCRSRSKIESSSDCGVDADGDLANQGVPASREEKISNLKMGLIHVARKMPKNAHAHFILGLMFQRLGQSQKAIPEYEKAEEILLGCEPEIARPELLLLVQIHHGQCLLLDGFGDTDSVKELEGEELEEILSKLKDSIKLDVRQAAVWNTLGLMLLKAGCLMSAISVLSSLLALVPDNYDCLANLGVAYLQSGDMELSAKCFQDLVLKDHNHPAALINYAAELLCKHSSTVAGAGANGGADASEDQKAPMNVAKECLLAALRSDPKSAHAWVNLANSYYMMGDHRSSSKCLEKAAKLDPNCMATRFAVAVQRIKDAERSQDASDQLSWAGNEMASVIREGESVPIDPPIAWAGLAMAHKAQHEIAAAFVADRNELTEMEERAVYSLKQAVTEDPEDAVRWHQLGLHSLCSQQYKLSQKYLKAAVGRSRECSYAWSNLGISLQLSDEHSEAEEVYKRALTVSKEDQAHAILSNLGNLYRQKKQYEVSKAMFSKALELKPGYAPAYNNLGLVFVAERRWEEAKSCFEKSLEADSLLDAAQSNLLKATTMSRLCTCFSSSTVVRDS | failed |
| MDRPLSFAAVSFLATLVTLLVLMQTALVAGGPLRALVLASVGAIGTYFAIRSGVLKS | failed |

Source: a protein production outcome set (Wang et al. 2014)
